Assay results taken from patent US20220177569A1 (Novartis, published 2022).
Each block holds one binder with its values, some of them ahead of it.

Legend:
Recombinant human IL-18 [1] = target: T1, Recombinant human IL-18 (human, UniProt Q14116 37-193); assay: cell-based or functional assay
Recombinant human IL-18 [2] = target: T1, Recombinant human IL-18; assay: cell-based or functional assay; remark: listed apart in the source
[3] = target: T2, Recombinant marmoset IL-18 (marmoset, UniProt U3CWC9 37-190); assay: cell-based or functional assay
T2 sequence: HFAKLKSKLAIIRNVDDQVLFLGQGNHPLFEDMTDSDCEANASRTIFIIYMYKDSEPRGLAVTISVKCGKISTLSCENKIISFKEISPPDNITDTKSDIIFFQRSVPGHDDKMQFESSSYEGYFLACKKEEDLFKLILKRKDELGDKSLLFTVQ

Recombinant human IL-18 [4] = target: T1, Recombinant human IL-18; assay: SET (solution equilibrium titration, MSD ECL), individual target binding
Method: (§1) The plate was blocked with 50 μl/well blocking buffer (PBS containing 5% BSA) for 1 hour (h), at room temperature (RT). After washing (TBST, TBS containing 0.05% Tween 20), a volume of 30 μl/well of the equilibrated antigen- antibody mix was transferred from the polypropylene MTP to the coated MSD plate and incubated for 20 min at RT. After an additional wash step, 30 μl sulfo tag-labeled anti-IgG detection antibody (0.5 μg/ml) diluted in sample buffer were added to each well and incubated for 30 min at RT on a shaker. The MSD plate was washed and 35 μl/well MSD read buffer were added and incubated for 5 min at RT. Electrochemiluminescence (ECL) signals were generated and measured by the MSD Sector Imager 6000.

[5] = target: T2, Recombinant marmoset IL-18; assay: as above
Method: as §1

Recombinant human IL-18 [6] = target: T1, Recombinant human IL-18; assay: SET, simultaneous target binding, Assay A (excess of the other target, IL-1β)
Method: as §1
(§2) Assay B: The equilibration process (antibody/antigen mix) was performed with both targets in serial dilutions in one mix simultaneously (constant concentration of antibody […], highest antigen conc. see above). The same mix was then analyzed for its free antibody concentration on IL18 and IL-1β coated plates as described above.

[7] = target: T2, Recombinant marmoset IL-18; assay: as above
Method: as §1, §2

Recombinant human IL-18 [8] = target: T1, Recombinant human IL-18; assay: SET, simultaneous target binding, Assay B (both targets in serial dilutions in one mix)
Method: as §1, §2

[9] = target: T2, Recombinant marmoset IL-18; assay: as above
Method: as §1, §2

Recombinant human IL-1β [10] = target: T3, Recombinant human IL-1β (human, UniProt P01584 117-269); assay: as above
T3 construct: also called huIL-1β; IL-1b
Method: as §1, §2

[11] = target: T4, Recombinant marmoset IL-1β (marmoset, UniProt U3E018 117-268); assay: as above
T4 construct: also called marIL-1β
Method: as §1, §2

Recombinant human IL-1β [12] = target: T3, Recombinant human IL-1β; assay: cell-based or functional assay
Recombinant human IL-1β [13] = target: T3, Recombinant human IL-1β; assay: cell-based or functional assay; remark: listed apart in the source
[14] = target: T4, Recombinant marmoset IL-1β; assay: cell-based or functional assay
Recombinant human IL-1β [15] = target: T3, Recombinant human IL-1β; assay: SET (solution equilibrium titration, MSD ECL), individual target binding
Method: as §1

[16] = target: T4, Recombinant marmoset IL-1β; assay: as above
Method: as §1

Recombinant human IL-1β [17] = target: T3, Recombinant human IL-1β; assay: SET, simultaneous target binding, Assay A (excess of the other target, IL-18)
Method: as §1, §2

[18] = target: T4, Recombinant marmoset IL-1β; assay: as above
Method: as §1, §2

IFNγ prod. KG-1 cells IC50 (3 nM recombinant human IL-18 and 1 ng/ml human IL-12) (Recombinant human IL-18 [1]): 0.035 nM
IFNγ prod. PBMC IC50 (3 nM recombinant human IL-18 and 1 ng/ml human IL-12) (Recombinant human IL-18 [1]): 0.78 nM
Inhibition of SEAP in HEK reporter cells stimulated simultaneously with IL-1β and IL-18, IC50; mAb1 alone (Recombinant human IL-18 [2]): > 30 nM
Inhibition of SEAP in HEK reporter cells stimulated simultaneously with IL-1β and IL-18, IC50; mAb2 and mAb1 combined (Recombinant human IL-18 [2]): 0.24 nM
IFNγ prod. Human PBMC IC50 (marmoset IL-18 1 nM and human IL-12 10 ng/ml) [3]: 6.6 nM
IFNγ prod. Marmoset blood IC50 (marmoset IL-18 0.3 nM and human IL-12 10 ng/ml) [3]: 4.7 nM
IFNγ prod. Marmoset blood IC50 (marmoset IL-18 3 nM and human IL-12 10 ng/ml) [3]: 181 nM
Kd (Recombinant human IL-18 [4]): 0.009 nM
Kd [5]: 0.021 nM
Kd (Recombinant human IL-18 [6]): 0.0135 nM
Kd [7]: 0.0271 nM
Kd (Recombinant human IL-18 [8]): 0.0114 nM
Kd [9]: 0.0263 nM
B1: mAb1 (IL-18 antibody) (antibody, human IgG1, lambda, L234A L235A, V domains shown)
VH: EVQLVQSGAEVKKPGSSVKVSCKASGGTFKSYAISWVRQAPGQGLEWMGNIIPMTGQTYYAQKFQGRVTITADESTSTAYMELSSLRSEDTAVYYCARAAYHPLVFDNWGQGTLVTVSS
VL: DIVLTQPPSVSGAPGQRVTISCSGSSSNIGNHYVNWYQQLPGTAPKLLIYRNNHRPSGVPDRFSGSKSGTSASLAITGLQSEDEADYYCQSWDYSGFSTVFGGGTKLTVLG
binding result (Recombinant human IL-1β [10]): no binding (tested: highest antigen conc. huIL-1β 0.5 nM)
binding result [11]: no binding (tested: highest antigen conc. marIL-1β 0.5 nM)

IL-6 prod. PBMC IC50 (human PBMC stimulated with 60 pM recombinant human IL-1β) (Recombinant human IL-1β [12]): 0.29 nM
IL-6 prod. derm. fibrobl. IC50 (human dermal fibroblasts stimulated with 6 pM recombinant human IL-1β) (Recombinant human IL-1β [12]): 31 pM
Inhibition of SEAP in HEK reporter cells stimulated simultaneously with IL-1β and IL-18, IC50; mAb2 alone (Recombinant human IL-1β [13]): 30 nM
Inhibition of SEAP in HEK reporter cells stimulated simultaneously with IL-1β and IL-18, IC50; mAb2 and mAb1 combined (Recombinant human IL-1β [13]): 0.24 nM
IL-6 prod. dermal fibroblasts IC50, Exp. B (18 pM recombinant marmoset IL-1β; marmoset cells by the reading of the header) [14]: 0.138 nM
IL-6 prod. dermal fibroblasts IC50, Exp. C (18 pM recombinant marmoset IL-1β; human cells by the reading of the header) [14]: 0.114 nM
IL-6 prod. marmoset dermal fibroblasts IC50, Exp. A (18 pM recombinant marmoset IL-1β) [14]: 95 pM
Kd (Recombinant human IL-1β [15]): 0.0006 nM
Kd [16]: 0.001 nM
Kd (Recombinant human IL-1β [17]): 0.0011 nM
Kd [18]: 0.0008 nM
Kd (Recombinant human IL-1β [10]): 0.0032 nM
Kd [11]: 0.0048 nM
B2: mAb2 (IL-1β antibody) (antibody, human IgG1, kappa, V domains shown)
VH: QVQLVESGGGVVQPGRSLRLSCAASGFTFSVYGMNWVRQAPGKGLEWVAIIWYDGDNQYYADSVKGRFTISRDNSKNTLYLQMNGLRAEDTAVYYCARDLRTGPFDYWGQGTLVTVSS
VL: EIVLTQSPDFQSVTPKEKVTITCRASQSIGSSLHWYQQKPDQSPKLLIKYASQSFSGVPSRFSGSGSGTDFTLTINSLEAEDAAAYYCHQSSSLPFTFGPGTKVDIKR
binding result (Recombinant human IL-18 [8]): no binding (tested: highest antigen conc. huIL-18 5 nM)
